Reference: patent publication US20210388331A1 (NEURO BIO, published 2021)

Molecular target: T1, α7 nicotinic-receptor (in rat brain slices / rat brain membranes) (rat, UniProt Q05941 23-502)
T1 construct: whole, on cells; also called α7 receptor; alpha-7 nicotinic acetylcholine receptor
Assay: [3H] ivermectin displacement, rat brain membranes (told in the legend of FIG. 6 only)

T1 sequence (Q05941 23-502): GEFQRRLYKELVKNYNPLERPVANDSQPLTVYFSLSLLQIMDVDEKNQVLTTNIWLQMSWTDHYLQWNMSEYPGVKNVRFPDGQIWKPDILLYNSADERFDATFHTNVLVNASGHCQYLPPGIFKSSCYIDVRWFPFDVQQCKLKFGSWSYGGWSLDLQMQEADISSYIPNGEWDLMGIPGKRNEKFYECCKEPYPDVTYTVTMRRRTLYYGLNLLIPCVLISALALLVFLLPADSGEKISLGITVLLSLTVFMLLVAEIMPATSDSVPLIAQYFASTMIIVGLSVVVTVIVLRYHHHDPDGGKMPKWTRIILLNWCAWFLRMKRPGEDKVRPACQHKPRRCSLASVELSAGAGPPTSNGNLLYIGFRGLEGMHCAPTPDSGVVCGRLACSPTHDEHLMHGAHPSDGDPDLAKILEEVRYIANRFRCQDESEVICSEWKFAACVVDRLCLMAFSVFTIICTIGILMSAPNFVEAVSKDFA

- binding result: binds
B1: T14 (AChE C-terminal peptide, linear) (peptide)
peptide: AEFHRWSSYMVHWK
notes: also called linear T14
